Data published in patent US20260365719 (published 2026).

What follows are binders tested against SARS-CoV-2 spike trimer (Wuhan) (SARS-CoV-2, UniProt P0DTC2) (assay: competition).

Binder | IC50
6R9A-A2 (antibody, V domains shown) VH: EVQLVESGGGLVQPGGSLRLSCTASGFSFPHQAMTWVRQAPGKGLEWIGVIASNADTYYASWAKGRFTISRDNSKNTLYLQMNSLRAEDTAVYYCARHPGSAGYGYQYYYAMDPWGQGTLVTVSS VL: DIQMTQSPSSLSASVGDRVTITCQASEEVHYGINWYQQKPGKAPKLLIYGANYRVDGVPSRFSGSGSGTDYTLTISSLQPEDFATYYCQQGYNVPTDFGGGTKVEIKR | 0.014 µg/mL
6R9B-B11 (antibody, V domains shown) VH: EVQLVESGGGLVQPGGSLRLSCKASGFTFSRQALTWVRQAPGKGLEWIGVIASNADTYYASWAKGRFTISRDNSKNTLYLQMNSLRAEDTAVYYCARHPGSAGYGYQYYYAMDPWGQGTLVTVSS VL: DIQMTQSPSSLSASVGDRVTITCQASQAIKYAINWYQQKPGKAPKLLIYGANYRGPGVPSRFSGSGSGTDYTLTISSLQPEDFATYYCQQGYIVPITFGGGTKVEIKR | 0.015 µg/mL
6R8A-E11 (antibody, V domains shown) VH: EVQLVESGGGLVQPGGSLRLSCKASGFTFSRQALTWVRQAPGKGLEWIGVIASNADTYYASWAKGRFTISRDNSKNTLYLQMNSLRAEDTAVYYCARHPGSAGYGYQYYYAMDPWGQGTLVTVSS VL: DIQMTQSPSSLSASVGDRVTITCQASENIRYAINWYQQKPGKAPKLLIYGANYRVDGVPSRFSGSGSGTDYTLTISSLQPEDFATYYCQQGYNVPTDFGGGTKVEIKR | 0.0116 µg/mL
6R8C-F10 (antibody, V domains shown) VH: EVQLVESGGGLVQPGGSLRLSCKASGFTFSRQALTWVRQAPGKGLEWIGVIASNADTYYASWAKGRFTISRDNSKNTLYLQMNSLRAEDTAVYYCARHPGSAGYGYQYYYAMDPWGQGTLVTVSS VL: DIQMTQSPSSLSASVGDRVTITCKASEDIRYGLNWYQQKPGKAPKLLIYGANYRVDGVPSRFSGSGSGTDYTLTISSLQPEDFATYYCQQGYNVPNFFGGGTKVEIKR | 0.0145 µg/mL
6R8A-A2 (antibody, V domains shown) VH: EVQLVESGGGLVQPGGSLRLSCKASGYSLNKQALTWVRQAPGKGLEWIGVIASNADTYYASWAKGRFTISRDNSKNTLYLQMNSLRAEDTAVYYCARHPGSAGYGYQYYYAMDPWGQGTLVTVSS VL: DIQMTQSPSSLSASVGDRVTITCQASEEVHYGINWYQQKPGKAPKLLIYGANYRVDGVPSRFSGSGSGTDYTLTISSLQPEDFATYYCQQGYNVPTDFGGGTKVEIKR | 0.0106 µg/mL
6R9B-E9 (antibody, V domains shown) VH: EVQLVESGGGLVQPGGSLRLSCKASGFTFSRQALTWVRQAPGKGLEWIGVIASNADTYYASWAKGRFTISRDNSKNTLYLQMNSLRAEDTAVYYCARHPGSAGYGYQYYYAMDPWGQGTLVTVSS VL: DIQMTQSPSSLSASVGDRVTITCQASENIRYAVNWYQQKPGKAPKLLIYGANYRVDGVPSRFSGSGSGTDYTLTISSLQPEDFATYYCQQGYRVQILFGGGTKVEIKR | 0.0185 µg/mL
6R9E-A8 (antibody, V domains shown) VH: EVQLVESGGGLVQPGGSLRLSCKASGSTISHQAVTWVRQAPGKGLEWIGVIASNADTYYASWAKGRFTISRDNSKNTLYLQMNSLRAEDTAVYYCARHPGSAGYGYQYYYAMDPWGQGTLVTVSS VL: DIQMTQSPSSLSASVGDRVTITCQASEEVHYGINWYQQKPGKAPKLLIYGANYRVDGVPSRFSGSGSGTDYTLTISSLQPEDFATYYCQQGYNVPTDFGGGTKVEIKR | 0.0274 µg/mL
6R8C-G8 (antibody, V domains shown) VH: EVQLVESGGGLVQLGGSLRLSCKASGYSLAPQAMTWVRQAPGKGLEWIGVIASNADTYYASWAKGRFTISRDNSKNTLYLQMNSLRAEDTAVYYCARHPGSAGYGYQYYYAMDPWGQGTLVTVSS VL: DIQMTQSPSSLSASVGDRVTITCQASEEVHYGINWYQQKPGKAPKLLIYGANYRVDGVPSRFSGSGSGTDYTLTISSLQPEDFATYYCQQGYNVPTDFGGGTKVEIKR | 0.0124 µg/mL
6R8C-D10 (antibody, V domains shown) VH: EVQLVESGGGLVQPGGSLRLSCTASGYSISHQAVTWVRQAPGKGLEWIGVIASNADTYYASWAKGRFTISRDNSKNTLYLQMNSLRAEDTAVYYCARHPGSAGYGYQYYYAMDPWGQGTLVTVSS VL: DIQMTQSPSSLSASVGDRVTITCQASEEVHYGINWYQQKPGKAPKLLIYGANYRVDGVPSRFSGSGSGTDYTLTISSLQPEDFATYYCQQGYNVPTDFGGGTKVEIKR | 0.0098 µg/mL
6R8A-F2 (antibody, V domains shown) VH: EVQLVESGGGLVQPGGSLRLSCKASGYSLSSQALTWVRQAPGKGLEWIGVIASNADTYYASWAKGRFTISRDNSKNTLYLQMNSLRAEDTAVYYCARHPGSAGYGYQYYYAMDPWGQGTLVTVSS VL: DIQMTQSPSSLSASVGDRVTITCQASEKVYYGVNWYQQKPGKAPKLLIYGTNYRLDGVPSRFSGSGSGTDSTLTISSLQPEDFATYYCQQGYNVPNAFGGGTKVEIKR | 0.0169 µg/mL
6R8C-D9 (antibody, V domains shown) VH: EVQLVESGGGLVQPGGSLRLSCKASGFTFSRQALTWVRQAPGKGLEWIGVIASNADTYYASWAKGRFTISRDNSKNTLYLQMNSLRAEDTAVYYCARHPGSAGYGYQYYYAMDPWGQGTLVTVSS VL: DIQMTQSPSSLSASVGDRVTITCQASEEVHYGINWYQQKPGKAPKLLIYGANYRVDGVPSRFSGSGSGTDYTLTISSLQPEDFATYYCQQGYNVPTDFGGGTKVEIKR | 0.0203 µg/mL
6R8A-E1 (antibody, V domains shown) VH: EVQLVESGGGLVQPGGSLRLSCKASGYSLAPQAMTWVRQAPGKGLEWIGVIASNADTYYASWAKGRFTISRDNSKNTLYLQMNSLRAEDTAVYYCARHPGSAGYGYQYYYAMDPWGQGTLVTVSS VL: DIQMTQSPSSLSASVGDRVTITCQASENIRYAINWYQQKPGKAPKLLIYGANYRVDGVPSRFSGSGSGTDYTLTISSLQPEDFATYYCQQGYNVPTDFGGGTKVEIKR | 0.0122 µg/mL
Bebtelovimab (antibody, V domains shown) VH: QITLKESGPTLVKPTQTLTLTCTFSGFSLSISGVGVGWLRQPPGKALEWLALIYWDDDKRYSPSLKSRLTISKDTSKNQVVLKMTNIDPVDTATYYCAHHSISTIFDHWGQGTLVTVSS VL: QSALTQPASVSGSPGQSITISCTATSSDVGDYNYVSWYQQHPGKAPKLMIFEVSDRPSGISNRFSGSKSGNTASLTISGLQAEDEADYYCSSYTTSSAVFGGGTKLTVLG | 0.00899 µg/mL
